Experimental findings from patent publication US20190023741A1 are described below.

One experiment deals with T1, Aβ11-29.
T1 sequence (peptide): EVHHQKLVFFAEDVGSNKG

Aβ1-20, sequence (peptide, as listed by the source): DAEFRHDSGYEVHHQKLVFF

Turning to SKGQA [ANA-SA5], the figures for the hydrolysis activity: remaining HPLC peak of the substrate with Aβ11-29 and in the experiment with Aβ1-20 were 72% and 49.6%, respectively.
